Fewer inactive variants are shown than the library holds.
How the values were obtained:
[1] = test system: biotinyl-Trp-oxazolone; assay: self-aminoacylation, catalytic enhancement (BWO) (fold over background); higher = more active; k-Seq, kA / k0A0; sequences stand for … in GGGAAUGGAUCCACAUCUACGAAUUC…UUCACUGCAGACUUGACGAAGCUG
Outline: (§1)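 Mutagenized RNA pools (0.43 μM; 21-nt variable region) were treated with 2–1250 μM of each biotinyl-aminoacyl-oxazolone. Conditions were 50 μL HEPES/NaCl/KCl/MgCl2/CaCl2 buffer, 5% acetonitrile, pH 6.9–7.0, room temperature, 90 minutes. Catalytic enhancement, the median kA relative to the uncatalyzed rate, was derived from streptavidin capture, qPCR and Illumina sequencing.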

[2] = test system: biotinyl-Met-oxazolone; assay: self-aminoacylation, catalytic enhancement (BMO) (fold over background); higher = more active; k-Seq, kA / k0A0; sequences stand for … in GGGAAUGGAUCCACAUCUACGAAUUC…UUCACUGCAGACUUGACGAAGCUG
Outline: as §1

[3] = test system: biotinyl-Ile-oxazolone; assay: self-aminoacylation, catalytic enhancement (BIO) (fold over background); higher = more active; k-Seq, kA / k0A0; sequences stand for … in GGGAAUGGAUCCACAUCUACGAAUUC…UUCACUGCAGACUUGACGAAGCUG
Outline: as §1

[4] = test system: biotinyl-Val-oxazolone; assay: self-aminoacylation, catalytic enhancement (BVO) (fold over background); higher = more active; k-Seq, kA / k0A0; sequences stand for … in GGGAAUGGAUCCACAUCUACGAAUUC…UUCACUGCAGACUUGACGAAGCUG
Outline: as §1

[5] = test system: biotinyl-Leu-oxazolone; assay: self-aminoacylation, catalytic enhancement (BLO) (fold over background); higher = more active; k-Seq, kA / k0A0; sequences stand for … in GGGAAUGGAUCCACAUCUACGAAUUC…UUCACUGCAGACUUGACGAAGCUG
Outline: as §1

[6] = test system: biotinyl-Phe-oxazolone; assay: self-aminoacylation, catalytic enhancement (BFO) (fold over background); higher = more active; k-Seq, kA / k0A0; sequences stand for … in GGGAAUGGAUCCACAUCUACGAAUUC…UUCACUGCAGACUUGACGAAGCUG
Outline: as §1

Sequence	self-aminoacylation [1]	self-aminoacylation [2]	self-aminoacylation [3]	self-aminoacylation [4]	self-aminoacylation [5]	self-aminoacylation [6]
GAGUUUGCUUAUAGUCGCAAG [Fam3.1 aminoacylation ribozyme variant]	1.75	1.44	1.65	1.39	1.24	2.28
GCACACUACAAGCAAUCGGUC [Fam1B.1 aminoacylation ribozyme variant]	1.68	0.979	1.36	1.26	1.14	1.55
GCACACUGCAAGCAAUCGGUC [Fam1B.1 aminoacylation ribozyme variant]	2.4	1.87	2.14	2.12	1.87	1.77
GCACACUUCAAGCAAUCGGGC [Fam1B.1 aminoacylation ribozyme variant]	4.23	2.58	3.11	3.09	3.02	13.7
GCACACUUCAAGCAAUCGGUU [Fam1B.1 aminoacylation ribozyme variant]	6.83	2.66	3.38	2.86	3.33	4.75
GCACACUUCAAGCAUUCGGUC [Fam1B.1 aminoacylation ribozyme variant]	3.5	2.09	2.57	2.59	2.17	4.96
GCACACUUCCAGCAAUCGGUC [Fam1B.1 aminoacylation ribozyme variant]	2.11	1.55	2.01	2.31	1.73	1.1
GCCCACUUCAAGCAAUCGGUC [Fam1B.1 aminoacylation ribozyme variant]	18.7	1.27	1.42	1.67	1.77	24.1
GCUCACUUCAAGCAAUCGGUC [Fam1B.1 aminoacylation ribozyme variant]	10.9	1.58	1.69	1.67	1.77	16.7
GGACUUCAAACAAUCGGUCUG [Fam1A.1 aminoacylation ribozyme variant]	47.1	2	2.34	1.88	2.75	122
GGUACCCUGGUCAUCGAGUGA [Fam2.1 aminoacylation ribozyme variant]	16.4	11.2	6.93	6.65	12.6	38.7
GUAAUUCAAACAAUCGGUCUG [Fam1A.1 aminoacylation ribozyme variant]	2.11	0.925	1.05	0.938	0.967	2.5
GUACUCCAAACAAUCGGUCUG [Fam1A.1 aminoacylation ribozyme variant]	1.84	0.967	1.06	1.04	0.944	2.05
GUACUUCAAACAAGCGGUCUG [Fam1A.1 aminoacylation ribozyme variant]	2.06	1.42	1.78	1.49	1.63	5.04
GUACUUCAAACAAUCGAUCUG [Fam1A.1 aminoacylation ribozyme variant]	1.64	0.863	1.18	0.987	0.862	1.72
GUACUUCAAACAAUCGGUCUG [Fam1A.1 aminoacylation ribozyme variant]	30.5	1.53	1.54	1.42	2.15	51.3
GUACUUCAAACGAUCGGUCUG [Fam1A.1 aminoacylation ribozyme variant]	1.8	1.13	1.14	1.08	1.32	1.38
GUACUUCAAAGAAUCGGUCUG [Fam1A.1 aminoacylation ribozyme variant]	4.9	1.07	1.26	1.24	1.46	3.28
GUUACCCGGGUCAUCGAGUGA [Fam2.1 aminoacylation ribozyme variant]	8.97	8.11	4.5	4.77	9.84	62.8
GUUACCCUGAUCAUCGAGUGA [Fam2.1 aminoacylation ribozyme variant]	11.1	8.85	3.61	4.23	9.43	32.3
GUUACCCUGGACAUCGAGUGA [Fam2.1 aminoacylation ribozyme variant]	9.84	8.05	4.6	4.58	9.14	48
GUUACCCUGGUCACCGAGUGA [Fam2.1 aminoacylation ribozyme variant]	14.8	11.2	5.31	6.95	13.1	79.2
GUUACCCUGGUCAUCGAGAGA [Fam2.1 aminoacylation ribozyme variant]	3.07	2.96	1.32	1.74	1.9	2.82
GUUACCCUUGUCAUCGAGUGA [Fam2.1 aminoacylation ribozyme variant]	10.7	8.39	4.41	4.44	8.14	48.1
GUUAUCCUGGUCAUCGAGUGA [Fam2.1 aminoacylation ribozyme variant]	13.1	10.9	6.24	5.41	9.81	16.1
GUUCACCUAGGUCACCGGGUG [Fam2.2 aminoacylation ribozyme variant]	6.73	3.6	4.06	3.55	5.53	28.5

— the supplement of paper PMC9233669
